In test [1] the test system is phosphorylation of Girdin. The test is described as follows: EGF-induced phosphorylation of endogenous Girdin in COS7 cells (immunoprecipitation, Western blot with anti-P-Girdin antibody). Type of test: cell-based. As to conditions: EGF 50 ng/ml 15 min, PD98059 50 μM. On the procedure:
Immunoprecipitates with anti-Girdin antibody were subjected to Western blot analyses with anti-P-Girdin and anti-Girdin antibodies. Activation of Akt was monitored by Western blot analyses with anti-phospho Akt antibody.
COS7 cells were transfected with either control or Akt siRNAs, and incubated for 48 hrs. Cells were then stimulated with EGF for 30 min and the phosphorylation of Girdin was analyzed as described in FIG. 2e.
Next, whether the anti-P-Girdin Ab can detect the endogenous Girdin phosphorylated in response to external stimuli that physiologically activate endogenous Akt was given consideration to. […] Furthermore, the phosphorylation of Girdin was inhibited when cells were treated with the PI3K inhibitors LY294002 and Wortmannin, but not with the mitogen-activated protein kinase kinase 1 (MEK1) inhibitor PD98059. It has therefore been concluded that the phosphorylation of Girdin is induced by EGF in a PI3K-dependent manner. […] Moreover, Girdin phosphorylation was undetectable in the cells transfected with Akt small interfering RNA (Akt siRNA). These findings confirmed that Akt activation is necessary for Girdin phosphorylation.
(In western blotting, separated proteins are transferred to a membrane and probed.)

The subject of a further test is F-actin. The test is described as follows: F-actin cosedimentation assay. Type of test: binding. How it is done:
A fixed amount of GST-CT2 was mixed with various amounts of F-actin, followed by ultracentrifugation. Amounts of the free and bound GST-CT2 were quantified, and the percentage of bound GST-CT2 was plotted against the concentration of F-actin, and the Kd value was calculated by Scatchard analysis.
GST-CT was phosphorylated by Akt in vitro (cf. FIG. 6d, (b)) and was subjected to an actin cosedimentation assay. A fixed amount of GST-CT was phosphorylated in vitro and mixed with various amounts of F-actin, followed by ultracentrifugation. The amount of phosphorylated GST-CT bound to F-actin in the pellet fraction was monitored by Western blot analyses with anti-P-Girdin antibody.
F-actin cosedimentation assays were performed according to the manufacturer's protocol (Cytoskeleton). […] The cosedimented proteins were resolved by SDS-PAGE and detected by either Coomassie Brilliant Blue (CBB) staining or Western blot analyses using anti-GST antibody (Cell Signaling Technology) or anti-phospho Girdin Ab. For quantitative analyses, a fixed concentration of GST-Girdin CT2 (1 μM) was mixed with increasing amounts of F-actin (0-2.5 μM) in polymerization buffer and incubated at room temperature for 30 min. […] Protein bands were detected by CBB staining, and scanned and quantified using the software program WinROOF (Mitani Corp., Fukui, Japan).

Test [2] can be described thus: Protein-lipid overlay assay (PIP-Strip), PI(4)P. Type of test: binding. The conditions noted are these: 4° C. How it is done:
(§1) The lipid binding of both GST-CT and GST-CT ΔPB was detected using anti-Girdin antibody, whereas that of phosphorylated GST-CT was detected by anti-P-Girdin antibody. The various lipids spotted on the membrane are indicated in (d).
(§2) GST fusion proteins were expressed in DH5 ? or BL21-CodonPlus (Stratagene) cells and purified using conventional methods. Binding of the purified GST-CT to phospholipids was examined at 4° C. using a PIP-Strip (Echelon Bioscience) according to the manufacturer's protocol. Bound GST-CT proteins were detected with either anti-Girdin or anti-phospho Girdin antibodies.

The nature of test [3]: Protein-lipid overlay assay (PIP-Strip), PI(3)P. As to conditions: 4° C. Type of test: binding. On the procedure:
as §1, §2

`COc1cccc(-c2cc(=O)c3ccccc3o2)c1N` [PD98059]: in test [1], the “phosphorylation of Girdin” value is given as “not”.

B1: phosphorylated GST-CT: purified GST-CT phosphorylated by Akt in vitro (protein)
chain: IMDQYKFYDPSPPRRRGNWITLKMRKLIKSKKDINRERQKSLTLTPTRSDSSEGFLQLPHQDSQDSSSVGSNSLEDGQTLGTKKSSMVALKRLPFLRNRPKDKDKMKACYRRSMSMNDLVQSMVLAGQWTGSTENLEVPDDISTGKRRKELGAMAFSTTAINFSTVNSSAGFRSKQLVNNKDTTSFEDISPQGVSDDSSTGSRVHASRPASLDSGRTSTSNSNNNASLHEVKAGAVNNQSRPQSHSSGEFSLLHDHEAWSSSGSSPIQYLKRQTRSSPVLQHKISETLESRHHKIKTGSPGSEVVTLQQFLEESNKLTSVQIKSSSQENLLDEVMKSLSVSSDFLGKDKPVSCGLARSVSGKTPGDFYDRRTTKPEFLRPGPRKTEDTYFISSAGKPTPGTQGKIKLVKESSLSRQSKDSNPYATLPRASSVISTAEGTTRRTSIHDFLTKDSRLPISVDSPPAAADSNTTAASNVDKVQESRNSKSRSREQQSS
modifications: left off: a dimerising Fc or GST
notes: purified GST-CT phosphorylated by Akt in vitro
B1: the “affinity for F-actin after phosphorylation by Akt” value with F-actin (GST-CT phosphorylated in vitro, detected with anti-P-Girdin antibody) is reported as “did not attenuate”. The “binding to PI(4)P” value in test [2] is on record as “bound to neither”. In addition, the “binding to PI(3)P” value in test [3] was “bound to neither”.

B2: GST-CT2: purified glutathione S-transferase (GST)-fused CT2, C-terminal half of the Girdin CT domain (protein)
chain: GEFSLLHDHEAWSSSGSSPIQYLKRQTRSSPVLQHKISETLESRHHKIKTGSPGSEVVTLQQFLEESNKLTSVQIKSSSQENLLDEVMKSLSVSSDFLGKDKPVSCGLARSVSGKTPGDFYDRRTTKPEFLRPGPRKTEDTYFISSAGKPTPGTQGKIKLVKESSLSRQSKDSNPYATLPRASSVISTAEGTTRRTSIHDFLTKDSRLPISVDSPPAAADSNTTAASNVDKVQESRNSKSRSREQQSS
modifications: left off: a dimerising Fc or GST
notes: purified glutathione S-transferase (GST)-fused CT2, C-terminal half of the Girdin CT domain
As to B2, the Kd on F-actin (GST-CT2 1 μM, F-actin 0-2.5 μM, Scatchard analysis, read-out: dissociation constant (Kd) for F-actin) is 1030 nM.

Broadly, the Kd is the constant that tells how readily two partners part at equilibrium.

For the origin of these results see US9206242B2, “Application of actin-binding protein to disease associated with cell motility” (NATIONAL UNIVERSITY CORPORATION NAGOYA UNIVERSITY, priority 2005, dated 2015).
